Source: publication doi:10.1101/2022.03.17.484533

What was measured:
[1] = biological target: LiRecT (RecT homolog from the A118 prophage of Listeria innocua) (Listeria innocua); experiment: cryo-EM structure
[2] = biological target: LiRecT (RecT homolog from the A118 prophage of Listeria innocua) (Listeria innocua); experiment: cryo-EM structure; remark: listed apart in the source
[3] = biological target: LiRecT (RecT homolog from the A118 prophage of Listeria innocua) (Listeria innocua); experiment: native MS

With “LiRecT (RecT homolog from the A118 prophage of Listeria innocua) (natural protein)” the stoichiometry N [1] was 12 subunits, the stoichiometry N [2] was 18 subunits and the stoichiometry N [3] was less than 9 subunits.
